Experimental findings from patent US7067474B1, “Agents for treating human illnesses based on β-catenin, and the production and use thereof” (Max-Delbruck-Centrum fur Molekulare Medizin, priority 1998, dated 2006) are described below.

Assay [1] concerns the target T1, human β-catenin (Leu218-Leu781) mutant His 470 to alanine, Gal-4 activation domain fusion (human, UniProt P35222 218-781).
T1 sequence: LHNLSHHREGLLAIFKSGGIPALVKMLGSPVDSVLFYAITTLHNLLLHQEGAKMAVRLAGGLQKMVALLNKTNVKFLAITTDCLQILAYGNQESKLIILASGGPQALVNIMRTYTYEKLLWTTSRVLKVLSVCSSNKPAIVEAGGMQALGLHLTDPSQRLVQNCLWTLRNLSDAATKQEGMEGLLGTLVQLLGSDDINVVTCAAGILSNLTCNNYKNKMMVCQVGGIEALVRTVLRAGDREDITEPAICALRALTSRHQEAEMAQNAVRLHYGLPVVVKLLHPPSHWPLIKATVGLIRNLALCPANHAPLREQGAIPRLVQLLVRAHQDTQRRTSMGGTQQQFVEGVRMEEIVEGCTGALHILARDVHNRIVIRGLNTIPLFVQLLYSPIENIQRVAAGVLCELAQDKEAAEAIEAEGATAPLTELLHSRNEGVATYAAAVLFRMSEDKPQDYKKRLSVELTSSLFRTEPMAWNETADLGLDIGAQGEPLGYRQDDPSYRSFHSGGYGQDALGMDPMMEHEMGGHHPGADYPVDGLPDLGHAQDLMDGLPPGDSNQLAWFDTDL
As to the kind of experiment: yeast 2-hybrid. The method, then: 4. Preparation and testing of mutants of β-catenin modulating the interaction with LEF-1, APC, conductin or E-cadherin The mutagenesis of β-catenin in the armadillo repeats 3–8 was carried out by means of the "mutagenesis kit" of the company Clontech according to the producer's record and the mutants were checked by sequencing (FIG. 5). In all mutants the original amino acid was substituted by alanine. For analyzing the interactions the cDNA of human β-catenin (armadillo repeat 3 up to the C-terminal end of the protein) coding for the amino acids Leu218–Leu7 µl or its mutants was cloned into the fusion vector for the activation domain of Gal-4 (pGAD424, Clontech). The cDNA for the binding domains of the interaction partners was cloned into the Lex-A fusion vector BTM 116. To this end, the cDNA of LEF-1 for the amino acids 1–99, conductin for the amino acids Ala342–ARG465; of human APC for the amino acids His1012–Glu1215 (APC 15 amino acid repeats) and for the amino acids Ser1259Asp 1400 (APC 20 amino acid repeats) and E-cadherin for the amino acids Gin773–Asp884 (cytoplasmatic domain) were amplified with the respective primers PCR. The interaction of the Lex-A hybrids with β-catenin and its mutants was quantified by means of the β-galactosidase reporter activity in the yeast 2-hybrid system (report: "Matchmaker". Clontech) (Tab. 2 and FIG. 6).

The target in assay [2] is T2, human β-catenin (Leu218-Leu781) mutant Lys 292 to alanine, Gal-4 activation domain fusion (human, UniProt P35222 218-781).
T2 sequence: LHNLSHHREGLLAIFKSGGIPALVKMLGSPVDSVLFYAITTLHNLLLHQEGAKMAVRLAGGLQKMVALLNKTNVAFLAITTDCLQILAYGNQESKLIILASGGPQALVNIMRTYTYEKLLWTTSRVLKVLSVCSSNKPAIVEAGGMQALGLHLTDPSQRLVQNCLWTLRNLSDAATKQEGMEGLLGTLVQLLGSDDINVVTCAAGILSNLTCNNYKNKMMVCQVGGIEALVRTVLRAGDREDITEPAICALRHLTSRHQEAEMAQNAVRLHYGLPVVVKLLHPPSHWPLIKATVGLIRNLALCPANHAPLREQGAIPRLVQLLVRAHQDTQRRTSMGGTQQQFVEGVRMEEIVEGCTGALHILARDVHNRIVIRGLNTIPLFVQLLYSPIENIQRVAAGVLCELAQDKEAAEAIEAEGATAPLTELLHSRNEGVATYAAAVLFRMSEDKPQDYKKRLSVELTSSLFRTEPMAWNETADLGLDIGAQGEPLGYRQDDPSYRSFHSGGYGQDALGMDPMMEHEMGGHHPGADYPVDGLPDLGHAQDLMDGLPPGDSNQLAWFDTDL
As to the kind of experiment: yeast 2-hybrid; - means 60-100% of the wild type interaction.

B1: LEF-1 amino acids 1-99 fused to Lex-A (vector BTM 116) (other, UniProt P0A7C2 1-202, looked up)
chain: MKALTARQQEVFDLIRDHISQTGMPPTRAEIAQRLGFRSPNAAEEHLKALARKGVIEIVSGASRGIRLLQEEEEGLPLVGRVAAGEPLLAQQHIEGHYQVDPSLFKPNADFLLRVSGMSMKDIGIMDGDLLAVHKTQDVRNGQVVVARIDDEVTVKRLKKQGNKVELLPENSEFKPIVVDLRQQSFTIEGLAVGVIRNGDWLMPQLSGGGGGGDPELCATDEMIPFKDEGDPQKEKIFAEISHPEEEGDLADIKSSLVNESEIIPASNGHEVVRQAPSSQEPYHDKAREHPDEGKHPDGGL
notes: Order of the fusion follows the vector; also called LEF-1/TCF-4
As for B1, the binding result in assay [1] was “no binding”; in assay [2], “binds”.
